Legend:
Settings in all cases: pH 6; 37 °C
p-NP-C2 = substrate: p-NP-C2
p-NP-C4 = substrate: p-NP-C4
p-NP-C6 = substrate: p-NP-C6
p-NP-C8 = substrate: p-NP-C8

B1: unnamed (protein)
chain: MSVTTPRRETSLLSRALRATAAAATAVVATVALAAPAQAANPYERGPNPTESMLEARSGPFSVSEERASRFGADGFGGGTIYYPRENNTYGAIAISPGYTGTQSSIAWLGERIASHGFVVIAIDTNTTLDQPDSRARQLNAALDYMLTDASSAVRNRIDASRLAVMGHSMGGGGTLRLASQRPDLKAAIPLTPWHLNKSWRDITVPTLIIGAEYDTIASVTLHSKPFYNSIPSPTDKAYLELDGASHFAPNITNKTIGMYSVAWLKRFVDEDTRYTQFLCPGPRTGLLSDVEEYRSTCPF
p-NP-C2
  Km: 3220 µM
  kcat: 2.06 s⁻¹
  kcat/Km: 640 M⁻¹ s⁻¹
p-NP-C4
  Km: 3410 µM
  kcat: 4.48 s⁻¹
  kcat/Km: 1310 M⁻¹ s⁻¹
p-NP-C6
  Km: 2370 µM
  kcat: 3.28 s⁻¹
  kcat/Km: 1380 M⁻¹ s⁻¹
p-NP-C8
  Km: 1870 µM
  kcat: 2.45 s⁻¹
  kcat/Km: 1310 M⁻¹ s⁻¹

From the PETadex activity labels (doi:10.1007/s00253-011-3781-6)
